Measured values: US20060275764

Biological target: Mannan-binding lectin (MBL), P11226
Sequence (P11226 21-248): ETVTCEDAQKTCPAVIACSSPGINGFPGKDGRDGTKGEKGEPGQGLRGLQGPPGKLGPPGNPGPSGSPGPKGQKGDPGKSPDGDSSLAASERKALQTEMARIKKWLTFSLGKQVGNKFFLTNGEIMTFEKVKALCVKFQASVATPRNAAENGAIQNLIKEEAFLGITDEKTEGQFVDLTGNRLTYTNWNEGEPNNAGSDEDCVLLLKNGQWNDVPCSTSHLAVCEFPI

B1: MASP-2 (MBL-associated serine protease 2), wild type, recombinant (protein)
chain: TPLGPKWPEPVFGRLASPGFPGEYANDQERRWTLTAPPGYRLRLYFTHFDLELSHLCEYDFVKLSSGAKVLATLCGQESTDTERAPGKDTFYSLGSSLDITFRSDYSNEKPFTGFEAFYAAEDIDECQVAPGEAPTCDHHCHNHLGGFYCSCRAGYVLHRNKRTCSALCSGQVFTQRSGELSSPEYPRPYPKLSSCTYSISLEEGFSVILDFVESFDVETHPETLCPYDFLKIQTDREEHGPFCGKTLPHRIETKSNTVTITFVTDESGDHTGWKIHYTSTAQPCPYPMAPPNGHVSPVQAKYILKDSFSIFCETGYELLQGHLPLKSFTAVCQKDGSWDRPMPACSIVDCGPPDDLPSGRVEYITGPGVTTYKAVIQYSCEETFYTMKVNDGKYVCEADGFWTSSKGEKSLPVCEPVCGLSARTTGGRIYGGQKAKPGDFPWQVLILGGTTAAGALLYDNWVLTAAHAVYEQKHDASALDIRMGTLKRLSPHYTQAWSEAVFIHEGYTHDAGFDNDIALIKLNNKVVINSNITPICLPRKEAESFMRTDDIGTASGWGLTQRGFLARNLMYVDIPIVDHQKCTAAYEKPPYPRGSVTANMLCAGLESGGKDSCRGDSGGALVFLDSETERWFVGGIVSWGSMNCGEAGQYGVYTKVINYIPWIENIISDF
- MBL pathway activity (C4b deposition in mannan coated wells): Restoration of the MBL pathway was also achieved by adding recombinant MASP-2 to the patient serum
